Source: the DeepSol protein solubility set

Test: soluble on expression in E. coli; label from the status in PepcDB or PDB records

| Sequence | soluble on expression in E. coli |
| --- | --- |
| MGSDKIHHHHHHMMSLSSAETIRASLHNALGKIESFKSCALLDYPDHPNIGDHLIWLGGVIYLTNVMKTQIKYTCSLHNFSPKTLEDNIGKSPIVFHGGGNLGDLWTEQQKFREGIISKYRDRPIVILPQSLYFRHEVNLIKTANIFNSHPNLTIFLRDERSYKIAREAFDKCQVFKAPDMAFQMTDLQDIFHIQNNKSSILYLSRKDREINQKQSENIFDLPNLVVEDWIAYEWKFGHPTKKLAKYVSTLYREVWQRGLATPIEWNSRQKWQNSYPYEVEFNHVYQPSIHQLSWSLMHSGVYQLKQHRLVITNRLHGHIICVLFNIPHVFLPNSYYKNEAFYEEWTKEIPDCRFIKDTSEVKIAVEELLASSTGKAIN | not soluble |
| WWYEGYRPNAGWALTDKPTYRDQQMQDKLDALSLYDILEREIIPLYYDKEDKSYSEGWIRYIRRSMMYIAPHFTMKRMLDDYYDKFYGPLAQRHRSISASSFALASEIADWKQQTATHWDEMRVVRVAATGFGLCLQDNHTMQTLEIEIEKGNLSAELNVELVVISDDNQGGVSLVQTIPLNLSEQSADNRWQKYNVNCSLKNPGLHRVAIRITPHSDLLPHKMDFAYVRWAAIS | not soluble |
| MTASSQAPLKYLQAYPQALQDQVHQLIAQDRLADYLQQRYPAGHQIQSDKALYAYALALKQDHLRNAPAIKKVLFDNRLDLTHRALGLHTKISRVQGGKLKASNEIRVAALFKEAPAEFLKMIVVHELAHFRESDHNKAFYQLCEHMLPGYHQLEFDLRVYLTYNELRASSGKFLEHHHHHH | soluble |
| MASDRKRQIIEAAAQSFAAFGYKATTMEQIAKLANVGKGTIYTFFKSKEELLDEIVSGLIMEIKAEAELAMDSSLPFSENVHRALYRILEFRQRHQLTAKLLQEVRNIGTVAVQEVLAKLDRAMVEFIRQKIDAAVEKGEIRPCNSEITAFLMLKTYIALIVDWEKDHEPLTKEQIAELFTLYFLQGLSR | not soluble |
| MSLRVRQIDRREWLLAQTATECQRHGREATLEYPTRQGMWVRLSDAEKRWSAWIKPGDWLEHVSPALAGAAVSAGAEHLVVPWLAATERPFELPVPHLSCRRLCVENPVPGSALPEGKLLHIMSDRGGLWFEHLPELPAVGGGRPKMLRWPLRFVIGSSDTQRSLLGRIGIGDVLLIRTSRAEVYCYAKKLGHFNRVEGGIIVETLDIQHIEEENNTTETAETLPGLNQLPVKLEFVLYRKNVTLAELEAMGQQQLLSLPTNAELNVEIMANGVLLGNGELVQMNDTLGVEIHEWLSESGNGE | not soluble |
| MSLQRLLQHSSNGNLADFCAGPAYSSYSTLTGSLTMDDNRRIQMLADTVATLPRGRKQLALTRSSSLSDFSWSQRKLVTVEKQDNETFGFEIQSYRPQNQNACSSEMFTLICKIQEDSPAHCAGLQAGDVLANINGVSTEGFTYKQVVDLIRSSGNLLTIETLNGTMILKRTELEAKLQVLKQTLKQKWVEYRSLQLQEHRLLHGDAANCPSLENMDLDELSLFGPLPGPGPALVDRNRLSSESSCKSWLSSMTMDSEDGYQTCVSEDSSRGAFSRQTSTDDECFIPKEGDDFLRRSSSRRNRSISNTSSGSMSPLWEGNLSSMFGTLPRKSRKGSVRKQLLKFIPGLHRAVEEEESRF | soluble |
| MTERKPEVIITYCTQCQWLLRAAWLAQELLSTFSDDLGKVSLEPATGGAFRITCDGVQIWERKADGGFPEAKVLKQRVRDQIDPERDLGHNDRTQLEHHHHHH | soluble |
| MAMADEQFENYLVMCYDKLESKQQKFISDYNIYNFDEYCYDQDPCILQFKKNGQVLLEFSVVFIGSWSGKSNSWMWSWANENVADYARSKSNCLKDLQKITGSEVFINPLFECDQEMAYELAAFSIEYLDAEGMYMAPGERSDVFMAVMSPHAL | not soluble |
| MGSDKIHHHHHHMYSYNQLRRVTFNQLGRIAYNSRSSPRRRAVFERLAGARPVVLTQERERLAVLDHANDIILEQEINGIDTVTFNIPFSDEKNQFIQNEHLIQIIDDYYIIRKITHSRGSQGVPITEVYAEALWYDLQFAEPMDISEWEGRAPAIVMADILRGTDWSVGRVELMNVRNVSVEPGVTNRLAALSQLPEVYGGELHFNSEAMTVDFLAPVGRQSGAAIVYEKNIHSIEAIYDTEDLITRIYPYGKENLSIEDINDGVPYLDIRDDPSYEFTDKLRVRILKDDRFTNPFHLREMAEEALKVLSQPRTSYHIKAADLSEMAGMSHEQFFLGDEVRVYDKELGIDIATRIMAWQYNVAEPWNTEIMLESKQPTLSDLLTGIQEGTGFLQSEDTVDSSDMLELSVFNHILNSRADDGFHYWTNSGWEIDAVNGYSGNASFKATGTTGRKVLSQTVYPAHRDHYAISFRSATKEFQTNDGGRVGLEIIVRYDDGTEDEPTFISLT | not soluble |
| MKMSTKGRYGLRAMLDIAVNSKGDIVSVKSIAERQNISESYLEQVFSILRKAAIVKSIKGAQGGYVLADDPSNITVGKILRTLEGNLNVVDIDDRDSEVSKEEKCINEFVWNKINKSIDKVVDNITLGDLLREYQKLEDNSSVMYYI | soluble |
| MFGGDVSAASVLPSHPISGSCDGFQAEGSDHHHSTMTPFQESQRNVYQILYGHPANDDFPRPITPLQITIPEGDASPTVPVSCGVVNGKMHLNLFMCPGIHQPCIEVGNDLLSPKQFTIRGDKERQKDWKASIRVGRSSLRTHMEAMTIDFYEHMNRCSGKCQSRNYVNAPSEEVLQARKSKRTSEAGQLKYEIENEMAGKEADNDDNRKSAKKARGRPRGSVNKPRQMVKMEPQDDRFFEEFFIDAPPLQSMSSNEEPTSSNKESNECTPFNDILNCLQNDPMNFWSQMQQTGVIGHFCDDIIVSAINLKQSVMDNPVTPTTANMLTRTAFALGIPPVVVHRVQSIERNAYQQRKHDEMFNDIQSTLAEEHSVKYQPRTSSSSQESLHTAREFTEEKVEELIDVCKYDDYPESECLPGPSHIQ | not soluble |
| MYNLLTKQEIQLLSLIEYLYDSKEKVPMQVLRRKYEFSHYNINNLLNQLTLLISRVNTHENVHIRIINNQQSIELVADENIPIELMKEAVVRGSLTYMLALDLLLKRYTSAKDFCEEHFINFSIFKQVSDRLNNHLARFNCYLNLKRREKICGNEKDFRSFFYSLFFISGTSLVPFLSKTNQAQLQNFIEIIKNRYPYFTYTDLRKLKLIMSIGLLRYQSGFTITNYPEVAAINLAFPYSEFQLLVNDCFIDEQKEPDTWQAEIHFYYDFFSTLTMYSLVQMETINFANLAIMGMDNSPHATWIFEKCTQLQLDLSAIEVVFLLVNLSNASERLIHFPVEEELSYEVANVSLYEKQYPNVSRTTNYFLKRLPFDKQHPLDALFKETIFLIIRSVLLNKQIPVKILLHSSINQIQENWLAKEINNYCDVPLKFVNHIQEVPDLVITDKNNPLFHASKTFYWHPVPYLDEYYNLKQVVRKIYFAKLRGENSLEGIGC | not soluble |
| MGSDKIHHHHHHMNRNNFSHEIIEPIDNLDVNFKLFDDSGSYVANHWHNSLEIIYITSGDLQINMEGYTYNLKANECMFINSGIIHSTRCIYQNTSILLQVPLSFLNKYIPDFKNCYFDFKVNANDNNYKKNSSKVKLILENMREIKLSSPPAANLLFTSLLFELLFELYTNFKISVGNKNMKKTVLDLSKFEPVLEYTKINYKMPISINKIAKVAHLQPEYFCRKFKQYMGQTYLEYLNDVRISHIYKDLINTNDTLCSILEAHGFTNTKLFYRIFKEKFKCTPKHIRKKST | not soluble |
| MSLIDIHSHIIPNIDDGSKSLEMSLEMLKRAEESGTKKIIATPHFFKGYWTENYNSVKDKVKELNKLAKENNLNIEIYPGQEVFFNNYILEDFKLGDIGTLGESRYMLIEFPMDKIYFQKAIDEIYELKIKGITPVIAHPERYVDFINNPEEINQFIDEGYLFQLNGGSLTGLFGKEVKKTAELFLENNLYSFIGSDAHSNGNRNTSLKEACEVANSISRGASRRFEANGLALLNNEKIVFQGEGHHHHHH | soluble |
| MSATSATNFAVQTHPVKAPDEEYFFEGAEKLLELWFCSSTQNETRSLRIIPREEIDAMLDIARCKILHSKHNESIDSYVLSESSLFISDNRVILKTCGTTRLLAALPVIMQLAGAYAGLDQVQSVYYSRKNFLRPDLQPSLHKNFDAEVEYLDSFFVDGHAYCLGSLKQDRWYLYTFHREVEFPAHKQPDHTLEILMSDLDEEVLHKFTKDYAVDGNDCFMRAGIDKIIPAGADVHDELFDPCGYSMNAYMNDTDQYATIHVTPEKAFSFASFETNQDLVCLYSQTRKVLQCFRPNKILMTVFANDISEKGKDAQQQLWDRELPGYRRTNVQFVRLETETLVYAHFVRKASTGQDSSSSDEDDGERSD | not soluble |
| DGRITGMIQVAIDVTEQVVARKKLEESESRFRALVNASSDVVYRMNADWTVMRELEGRDFLTPAGTAMADWVETYTYREDRALVKATAAAAIEGKRIFELEHRVLKADGTIGWTFSRAIPILDEQ | not soluble |
| MGSDKIHHHHHHMTTFTAKFIDQEWEVPVESGRYHMIVGEFCPYAQRPQIARQLLGLDKHISISFVDDVPSDIGLIFSQPEQVTGAKSLRDIYHLTDPTYQGPYTIPILIDKTDNRIVCKESADLLRLFTTDFSDLHQEDAPVLFSQETASLIDNDIKDINKNFQSLMYKLAFLDKQADYDTYSKEFFTFLDQKEHLLGQRPFLLGDNLSEVDIHFFTPLVRWDIAGRDLLLLNQKALEDYPNIFSWAKTLYNDFNLKTLTNPQSIKNNYYLGKFGRAVRHHTIVPTGPNMAKWEK | not soluble |
| MDVKPDRVIDARGSYCPGPLMELIKAYKQAKVGEVISVYSTDAGTKKDAPAWIQKSGQELVGVFDRNGYYEIVMKKVK | soluble |
| MIPYRQLVRMSHLAARFVGGADVHVVDPLVDLRNVFEQTDQLKIALECRNLTVDVEKVKNEYDEWFETYQKWKQADKESISQLKKELRAKKDGLLNALALPNLVHHAGKKQTPLLKPSKHAQYLAQQGLMRIDKQNHVVHLVGYPVVVQKMIREQLVDLFPGCQPISPSYFARAAILEALNIDQSTCIPFTDDSSHFPLTYLVGNSLPAITSPFLKTSFGEKNEWPISVQCTGASYTEKKNQVDLGNARQRMKHCALWMSKSAEELEGIINDANVRVGAYLDEGLDLEVKVREVRGSELKNYESQAFVVENRGLSLSRISRIGDYVSKRLNIQYSGSPATEKSEKSDGFVQMVYVETDIDRILARLVDDLIEGKEPPKYIRDAIKKSF | not soluble |
| MSLNNIMKVVIIGAGPAGVYSALTLSKHAKVTLIEREEKLGGTCVLYGCIPTKSILSQLIISRQASNMSLNTLREYALTSINTISKSLEHLLNSHGIEVIHANGFLRSSMVHASNTSLAADKVLVSTGTRRERLGKVKFTEDLAYTNEDYNKVVIVGGDAGGIELGWMMKKLGKEVHLIDKNDLLLQNIDRTLSEIVTNFLSQIGIKLYLGKKVSKIDETSVTLEDNQKISGDAVFVTFGRKPNIEGFEEIPHEKYIYVDEYLRTQIPNIYAAGDIIGTFTAHEAIYAGIIAAKNMLGEKREFIVEGIPKVIYIYPQIAYVGTTNGNCVTFNTLNLTRTIVERESEGFLKICERDNRVIGAVAFMPYAEDVISLISVLIRYQISLKDTIDLVMPHPSYLEAITEALNMLQSKGEGHHHHHH | not soluble |
| AHHHHHHGSAGVRLVGVWKQFGSFTAVKDLTLEVRDGEFLVLLGPSGCGKTTTLRMIAGLEEPTKGQIYIGDKLVADPEKGVFVPPKDRDIAMVFQSYALYPHMTVYENIAFPLKLRKVPKQEIDKRVREVAEMLGLTELLNRKPRELSGGQRQRVALGRAIVRRPQVFLMDEPLSNLDAKLRVKMRAELKKLQKQLGVTTIYVTHDQVEAMTMGDRIAVMNQGVLQQVGTPEEVYEKPANTFVAGFIGSPPMNFLDATITEDGFLDFGEFRLKLLPDQFEVLQDYVGKEVIFGIRPEDIYDALFAQVKIPGENMARGVVDIIENLGGEKIVHISIGGLIVTAKFPGESRVKEGDEIDIVFDMKKIHIFNKKTGKAIL | soluble |
